Assay results from patent US20160000910A1 (AC IMMUNE S A, published 2016).

T1: biotinylated Aβ17-40 peptide (biotinylated (position not given))
T1 construct: Peptide from Anaspec
T1 peptide: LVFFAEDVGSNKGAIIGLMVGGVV


Legend:
[1] = molecular target: Aβ1-42 peptide (Thioflavin T assay); assay: cell-based or functional assay
[2] = molecular target: Aβ1-42 library peptide 26; assay: peptide library ELISA, 10 µg/ml mAb
Excerpt: (§1) The peptides in the peptide library were composed of 8, 9 or 10-mer aa peptides. A biotinylated complete Aβ1-42 peptide (human sequence) was used as positive control (Bachem, Bubendorf, Switzerland). In addition, longer peptides covering Aβ1-28, Aβ17-40, Aβ1-40 and Aβ1-42 were used to define the broader region to which these antibodies may bind. These 4 peptides were also biotinlyated (manufactured by Anaspec and purchased from ANAWA Trading SA, Switzerland). Epitope mapping was done according to the manufacturer's (Mimotopes) instructions. Briefly, Streptavidin coated plates (NUNC, Roskilde, Denmark) were blocked with 0.1% BSA in PBS overnight at 4° C. After washing with PBS-0.05% Tween 20, plates were coated for 1 hour at RT with the different peptides from the library, diluted in 0.1% BSA, 0.1% Sodium Azide in PBS to a final concentration of 10 μM. […] Plates were washed again and incubated with alkaline phosphatase conjugated goat anti mouse IgG (Jackson Immunresearch West Grove, Pa., USA) for 1 h at RT. After final washing, plates were incubated with phosphatase substrate (pNPP, Sigma-Aldrich, St Louis, Mo., USA) and read after 3 hours of incubation at 405 nm using an ELISA plate reader.

Aβ1-42 library peptide 6 = assay: peptide library ELISA, 10 µg/ml mAb
Excerpt: as §1

Aβ1-42 library peptide 7 = assay: peptide library ELISA, 10 µg/ml mAb
Excerpt: as §1

[3] = molecular target: Aβ1-42 library peptide 20; assay: peptide library ELISA, 10 µg/ml mAb
Excerpt: as §1

[4] = molecular target: Aβ1-42 library peptide 17; assay: peptide library ELISA, 10 µg/ml mAb
Excerpt: as §1

[5] = molecular target: Aβ1-42 library peptide 31; assay: peptide library ELISA, 10 µg/ml mAb
Excerpt: as §1

[6] = molecular target: Aβ1-42 library peptide 11; assay: peptide library ELISA, 10 µg/ml mAb
Excerpt: as §1

Aβ1-42 library peptide 2 = assay: peptide library ELISA, 10 µg/ml mAb
Excerpt: as §1

[7] = molecular target: Aβ1-42 library peptide 16; assay: peptide library ELISA, 10 µg/ml mAb
Excerpt: as §1

Aβ1-42 library peptide 9 = assay: peptide library ELISA, 10 µg/ml mAb
Excerpt: as §1

[8] = molecular target: Aβ1-42 library peptide 24; assay: peptide library ELISA, 10 µg/ml mAb
Excerpt: as §1

[9] = molecular target: Aβ1-42 library peptide 21; assay: peptide library ELISA, 10 µg/ml mAb
Excerpt: as §1

[10] = molecular target: Aβ1-42 library peptide 25; assay: peptide library ELISA, 10 µg/ml mAb
Excerpt: as §1

[11] = molecular target: Aβ1-42 library peptide 10; assay: peptide library ELISA, 10 µg/ml mAb
Excerpt: as §1

Aβ1-42 library peptide 4 = assay: peptide library ELISA, 10 µg/ml mAb
Excerpt: as §1

[12] = molecular target: Aβ1-42 library peptide 32; assay: peptide library ELISA, 10 µg/ml mAb
Excerpt: as §1

[13] = molecular target: Aβ1-42 library peptide 13; assay: peptide library ELISA, 10 µg/ml mAb
Excerpt: as §1

Aβ1-42 library peptide 8 = assay: peptide library ELISA, 10 µg/ml mAb
Excerpt: as §1

[14] = molecular target: Aβ1-42 library peptide 29; assay: peptide library ELISA, 10 µg/ml mAb
Excerpt: as §1

[15] = molecular target: Aβ1-42 library peptide 15; assay: peptide library ELISA, 10 µg/ml mAb
Excerpt: as §1

[16] = molecular target: Aβ1-42 library peptide 14; assay: peptide library ELISA, 10 µg/ml mAb
Excerpt: as §1

[17] = molecular target: Aβ1-42 library peptide 18; assay: peptide library ELISA, 10 µg/ml mAb
Excerpt: as §1

Aβ1-42 library peptide 1 = assay: peptide library ELISA, 10 µg/ml mAb
Excerpt: as §1

Aβ1-42 library peptide 5 = assay: peptide library ELISA, 10 µg/ml mAb
Excerpt: as §1

[18] = molecular target: Aβ1-42 library peptide 12; assay: peptide library ELISA, 10 µg/ml mAb
Excerpt: as §1

[19] = molecular target: Aβ1-42 library peptide 28; assay: peptide library ELISA, 10 µg/ml mAb
Excerpt: as §1

[20] = molecular target: Aβ1-42 library peptide 19; assay: peptide library ELISA, 10 µg/ml mAb
Excerpt: as §1

[21] = molecular target: Aβ1-42 library peptide 33; assay: peptide library ELISA, 10 µg/ml mAb
Excerpt: as §1

[22] = molecular target: Aβ1-42 library peptide 22; assay: peptide library ELISA, 10 µg/ml mAb
Excerpt: as §1

Aβ1-42 library peptide 3 = assay: peptide library ELISA, 10 µg/ml mAb
Excerpt: as §1

[23] = molecular target: Aβ1-42 library peptide 30; assay: peptide library ELISA, 10 µg/ml mAb
Excerpt: as §1

[24] = molecular target: Aβ1-42 library peptide 27; assay: peptide library ELISA, 10 µg/ml mAb
Excerpt: as §1

[25] = molecular target: Aβ1-42 library peptide 23; assay: peptide library ELISA, 10 µg/ml mAb
Excerpt: as §1

[26] = molecular target: T1, biotinylated Aβ17-40 peptide; assay: ELISA, biotinylated peptide on streptavidin plate
Excerpt: as §1

[27] = molecular target: T2, biotinylated Aβ1-40 peptide (biotinylated (position not given)); assay: ELISA, biotinylated peptide (Anaspec) on streptavidin plate, 10 µg/ml mAb
T2 construct: Peptide from Anaspec; also called Ab1-40
Excerpt: as §1

[28] = molecular target: T1, biotinylated Aβ17-40 peptide; assay: as above
Excerpt: as §1

[29] = molecular target: T3, biotinylated complete Aβ1-42 peptide (human sequence) (human, biotinylated (position not given)); assay: peptide library ELISA, complete Aβ1-42 (Bachem) as positive control, 10 µg/ml mAb
T3 construct: Same peptide from two suppliers (1-42A Anaspec, 1-42B Bachem); the supplier is named under assay; also called Ab1-42; 1-42A (Anaspec)
Excerpt: as §1

Sequence of Aβ1-42 peptide (Thioflavin T assay) (peptide, as listed by the source): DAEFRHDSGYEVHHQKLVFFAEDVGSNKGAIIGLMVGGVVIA
T3 sequence (peptide, as listed by the source): as above

Binder	disaggregation of pre-aggregated Aβ1-42, Thioflavin T fluorescence, antibody to Aβ1-42 molar ratio 1:10 [1]	disaggregation of pre-aggregated Aβ1-42, Thioflavin T fluorescence, antibody to Aβ1-42 molar ratio 1:100 [1]	inhibition of Aβ1-42 aggregation, Thioflavin T fluorescence, antibody to Aβ1-42 molar ratio 1:10 [1]	inhibition of Aβ1-42 aggregation, Thioflavin T fluorescence, antibody to Aβ1-42 molar ratio 1:100 [1]	O.D. [2]	O.D. (Aβ1-42 library peptide 6)	O.D. (Aβ1-42 library peptide 7)	O.D. [3]	O.D. [4]	O.D. [5]	O.D. [6]	O.D. (Aβ1-42 library peptide 2)	O.D. [7]	O.D. (Aβ1-42 library peptide 9)	O.D. [8]	O.D. [9]	O.D. [10]	O.D. [11]	O.D. (Aβ1-42 library peptide 4)	O.D. [12]	other results
mouse monoclonal antibody ACI-11-Ab-9 (antibody, V domains shown, also called clone FG1F9E4; DSM ACC2845) VH: QVQLQQSDAELVKPGASVKISCKVSGYTFTDHTIHWMKQRPEQGLEWIGYIYPRDGSTKYNEKFKGKATLTADKSSSTAYMQLNSLTSEDSAVYFCARDYGYAFDYWGQGTTLTVSS VL: QAVVTQESALTTSPGGTVILTCRSSTGAVTTSNYANWVQEKPDHLFTGLIGGTSNRAPGVPVRFSGSLIGDKAALTITGAQTEDDAMYFCALWYSTHYVFGGGTKVTVL	52%	22%	69%	34%	0.12 O.D.	0.11 O.D.	0.11 O.D.	0.1 O.D.	0.13 O.D.	0.12 O.D.	0.11 O.D.	0.1 O.D.	0.14 O.D.	0.11 O.D.	0.1 O.D.	0.1 O.D.	0.11 O.D.	0.13 O.D.	0.11 O.D.	0.12 O.D.	O.D. [13]: 0.17 O.D.; O.D. (Aβ1-42 library peptide 8): 0.11 O.D.; O.D. [14]: 0.2 O.D.; O.D. [15]: 0.14 O.D.; O.D. [16]: 0.16 O.D.; O.D. [17]: 0.11 O.D.; O.D. (Aβ1-42 library peptide 1): 0.1 O.D.; O.D. (Aβ1-42 library peptide 5): 0.11 O.D.; O.D. [18]: 0.24 O.D.; O.D. [19]: 0.12 O.D.; O.D. [20]: 0.1 O.D.; O.D. [21]: 0.11 O.D.; O.D. [22]: 0.1 O.D.; O.D. (Aβ1-42 library peptide 3): 0.12 O.D.; O.D. [23]: 0.11 O.D.; O.D. [24]: 0.13 O.D.; O.D. [25]: 0.11 O.D.; binding result [26]: no binding (tested: 10 µg/ml); O.D. after background subtraction (mean) [27]: 1.02 O.D.; O.D. after background subtraction (mean) [28]: 0.02 O.D.
mouse monoclonal antibody ACI-12-Ab-11 (antibody, V domains shown, also called clone FK2A6A6; DSM ACC2846) VH: QVQLQQSDAELVKPGASVKISCKVSGYTFTDHTIHWMKQRPEQGLEWIGYIYPRDGSTKYNEKFKGKATLTADKSSSTAYMQLNSLTSEDSAVYFCARDYGYAFDYWGQGTTLTVSS VL: QAVVTQESALTTSPGGTVILTCRSSTGAVTTSNYANWVQEKPDHLFTGLIGGTSNRAPGVPVRFSGSLIGDKAALTITGAQTEDDAMYFCALWYSTHYVFGGGTKVTVL	54%	18%	66%	30%	0.12 O.D.	0.1 O.D.	0.1 O.D.	0.1 O.D.	0.12 O.D.	0.11 O.D.	0.11 O.D.	0.1 O.D.	0.14 O.D.	0.1 O.D.	0.1 O.D.	0.09 O.D.	0.11 O.D.	0.1 O.D.	0.1 O.D.	0.11 O.D.	O.D. [29]: 0.69 O.D.; O.D. [13]: 0.15 O.D.; O.D. (Aβ1-42 library peptide 8): 0.1 O.D.; O.D. [14]: 0.11 O.D.; O.D. [15]: 0.1 O.D.; O.D. [16]: 0.12 O.D.; O.D. [17]: 0.1 O.D.; O.D. (Aβ1-42 library peptide 1): 0.1 O.D.; O.D. (Aβ1-42 library peptide 5): 0.1 O.D.; O.D. [18]: 0.21 O.D.; O.D. [19]: 0.11 O.D.; O.D. [20]: 0.1 O.D.; O.D. [21]: 0.11 O.D.; O.D. [22]: 0.1 O.D.; O.D. (Aβ1-42 library peptide 3): 0.11 O.D.; O.D. [23]: 0.11 O.D.; O.D. [24]: 0.12 O.D.; O.D. [25]: 0.1 O.D.; O.D. after background subtraction (mean) [27]: 0.62 O.D.; O.D. after background subtraction (mean) [28]: -0.02 O.D.
